Reference: patent US20250180582A1 (XIAMEN INNOBIOMAX BIOTECHNOLOGY, published 2025)

T1: pCold-TF-GPR37-1-613 full-length antigen (human, UniProt O15354 27-613)
T1 construct: Target fragment of Antigen 1 moved into the pCold-TF expression vector; also called Antigen 2; not shown: TF fusion partner encoded by the pCold-TF vector
T1 sequence: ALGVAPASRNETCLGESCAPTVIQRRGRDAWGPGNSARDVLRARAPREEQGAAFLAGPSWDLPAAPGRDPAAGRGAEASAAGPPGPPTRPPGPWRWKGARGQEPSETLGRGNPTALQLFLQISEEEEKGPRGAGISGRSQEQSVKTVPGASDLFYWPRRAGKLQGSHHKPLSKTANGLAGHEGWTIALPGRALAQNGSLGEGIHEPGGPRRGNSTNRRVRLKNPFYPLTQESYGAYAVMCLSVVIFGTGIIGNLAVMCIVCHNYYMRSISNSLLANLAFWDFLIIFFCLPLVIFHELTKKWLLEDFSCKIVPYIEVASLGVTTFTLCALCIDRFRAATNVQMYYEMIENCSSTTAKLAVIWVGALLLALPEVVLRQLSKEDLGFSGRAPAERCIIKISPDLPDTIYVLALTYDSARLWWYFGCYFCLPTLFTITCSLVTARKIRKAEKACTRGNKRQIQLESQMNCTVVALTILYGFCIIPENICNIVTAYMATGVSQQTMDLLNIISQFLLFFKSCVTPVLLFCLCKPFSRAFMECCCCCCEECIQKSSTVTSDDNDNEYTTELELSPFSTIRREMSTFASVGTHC

T2: pET-32a-GPR37-1-613 full-length antigen (human, UniProt O15354 27-613)
T2 construct: Expressed in Escherichia coli from pET-32a and purified; also called Antigen 1; not shown: fusion partner/tags encoded by the pET-32a vector
T2 sequence: T1 sequence

T3: pCold-TF-GPR37-1-265 extracellular segment protein (human, UniProt O15354 27-265)
T3 construct: also called Antigen 3; not shown: TF fusion partner encoded by the pCold-TF vector
T3 sequence: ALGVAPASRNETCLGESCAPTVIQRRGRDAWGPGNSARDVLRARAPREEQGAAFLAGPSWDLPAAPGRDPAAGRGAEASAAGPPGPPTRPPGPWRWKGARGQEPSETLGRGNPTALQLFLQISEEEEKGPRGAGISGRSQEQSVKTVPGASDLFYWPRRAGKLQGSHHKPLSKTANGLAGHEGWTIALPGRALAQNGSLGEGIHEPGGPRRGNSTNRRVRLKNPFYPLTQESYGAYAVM

B1: monoclonal antibody 5A2 (antibody, IgG2a, V domains shown)
VH: EVKLVESGGGLVQPGGSLRLSCATSGFIFSDYYMSWVRQPPGKALEWLGYIRNKAKRYTTEYNASVKGRFTISRDNSQNILYLQMNTLRAEDSATYYCARDTSDYDRFAYWGQGTLVTVSA
VL: DIVMTQTPLSLPVSLGDHASLSCKSSQSLVHRNGNTYLHWFLQKPGQSPKLLIYKVSNRFSGVPDRFSGSGSGTDFTLKISRVEAADLGVYFCSQSTLLPYTFGGGTKLEIK
notes: Mouse hybridoma antibody; also called mAb 5A2; 5A2-HRP
B2: monoclonal antibody 6D2 (antibody, IgG2a, V domains shown)
VH: EVMLVESGGGLVKPGGSLKLSCAASGFIFSSQAMSWVRQIPEKRLEWVATISSGGSYTYYPDSVKGRFTISRDNAKNTLYLQMSSLTSEDTAMYYCARQRDFGRYYGYDPFFDFWGQGTTLTF
VL: EIVLTQSPTTMAASPGEKITITCSASSSISSNYLHWYQQKPGFSPKLLIYRTSNLPSGVPARFSGSGSGTSYSLTIGTMEAEDVATYYCQQGSSVPRITFGAGTKLE
notes: Mouse hybridoma antibody; also called mAb 6D2

How the values were obtained:
Assay in all cases: indirect ELISA, cell supernatant, antigen coated 200 ng/mL
[1] = target: T1, pCold-TF-GPR37-1-613 full-length antigen
Experimental: (§1) 3.6 Screening of hybridomas: Antigen 1 was used for primary screening, and two antigens that were also fused to pET-32a were used as accessory means for differential screening, in which both antigens were from Inbermax (Catalog No.: E11024, Catalog No.: E1212), and the self-made recombinant Antigen 2 and Antigen 3 were used at the same for identification. The screening method was an indirect ELISA, and its specific steps comprised: the plate was coated with the antigen at 200 ng/mL, 100 ul per well, added with 50 μL of cell supernatant, incubated at 37° C. for 30 minutes, washed 5 times with a plate washer, added with 100 ul of GAM-HRP prepared at 1:5K, incubated at 37° C. for 30 minutes, washed 5 times with a plate washer, added with a chromogenic solution at 100 ul/well, incubated at 37° C. for 15 minutes, added with a stop solution to terminated the reaction, and placed in a microplate reader to read signal values using dual wavelengths. Based on the experimental results, the cells in the corresponding positive wells were selected for the next step work.
(§2) 3.7 Cloning of hybridoma cells: Using the limiting dilution method, the cells were first diluted in gradient at certain concentrations, and then inoculated into each well of a 96-well cell culture plate, so that only one cell grew in the well as much as possible. The hybridoma monoclonal positive cell line was repeatedly cloned at least 3 times, and were confirmed as a stable clone after the final round was 100% positive. The positive standards were as described in 3.6.

[2] = target: T2, pET-32a-GPR37-1-613 full-length antigen
Experimental: as §1, §2

[3] = target: T3, pCold-TF-GPR37-1-265 extracellular …
Experimental: as §1, §2

[4] = target: T4, antigen fused to pET-32a from Inbermax, Catalog No.: E1212
T4 construct: Used for differential screening against the pET-32a fusion part
Experimental: as §1, §2

[5] = target: T5, antigen fused to pET-32a from Inbermax, Catalog No.: E11024
T5 construct: Used for differential screening against the pET-32a fusion part
Experimental: as §1, §2

| Binder | ELISA signal [1] [OD] | ELISA signal [2] [OD] | ELISA signal [3] [OD] | ELISA signal [4] [OD] | ELISA signal [5] [OD] |
| --- | --- | --- | --- | --- | --- |
| B1 | 6.24 | 2.83 | 3.37 | 0.011 | 0.008 |
| B2 | 2.81 | 3.37 | 3.54 | 0.01 | 0.009 |
